Experimental data from US20180155451A1 (published 2018).

T1: FcγRIIa H (FcγRIIa type H, His at position 131), extracellular domain with C-terminal His tag (human, UniProt P12318 34-217)
T1 construct: extracellular domain; Expressed in FreeStyle293 cells; analyte in the Biacore assay; also called FcgRIIa H; 2aH; not shown: His tag at the C terminus
T1 sequence (looked up): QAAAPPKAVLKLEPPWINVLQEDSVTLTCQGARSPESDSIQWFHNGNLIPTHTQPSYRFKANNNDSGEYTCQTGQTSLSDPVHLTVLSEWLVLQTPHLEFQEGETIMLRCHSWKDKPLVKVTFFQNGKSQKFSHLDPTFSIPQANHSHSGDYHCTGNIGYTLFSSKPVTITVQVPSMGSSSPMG

T2: FcγRIIb, extracellular domain with C-terminal His tag (human, UniProt P31994 43-217)
T2 construct: extracellular domain; Expressed in FreeStyle293 cells; analyte in the Biacore assay; also called FcgRIIb; 2b; not shown: His tag at the C terminus
T2 sequence (looked up): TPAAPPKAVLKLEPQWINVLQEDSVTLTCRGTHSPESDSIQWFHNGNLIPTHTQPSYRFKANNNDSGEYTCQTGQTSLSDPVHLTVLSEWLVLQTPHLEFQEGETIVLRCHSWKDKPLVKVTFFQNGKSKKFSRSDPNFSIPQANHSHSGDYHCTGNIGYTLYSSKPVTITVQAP

B1: GpH7-A5/GpH7-B3 variant P329_01G/GpL16-k0 (antibody, human IgG1, kappa)
heavy 1: not shown
heavy 2: not shown
light: DIVMTQSPLSLPVTPGEPASISCQASESLVHSNRNTYLHWYLQKPGQSPQLLIYKVSNRFSGVPDRFSGSGSGTDFTLKISRVEAEDVGVYYCSQNTHVPPTFGQGTKVEIERTVAAPSVFIFPPSDEQLKSGTASVVCLLNNFYPREAKVQWKVDNALQSGNSQESVTEQDSKDSTYSLSSTLTLSKADYEKHKVYACEVTHQGLSSPVTKSFNRGEC
notes: He Ab; IgG1; mutation in one H chain only; also called He Ab
B2: GpH7-A5/GpH7-B3 variant P329_07I/GpL16-k0 (antibody, human IgG1, kappa)
heavy 1: not shown
heavy 2: not shown
light: B1 light
notes: as for B1
B3: GpH7-A5/GpH7-B3 variant P329_19Q/GpL16-k0 (antibody, human IgG1, kappa)
heavy 1: not shown
heavy 2: not shown
light: B1 light
notes: as for B1
B4: GpH7-A5/GpH7-B3 variant P329_18N/GpL16-k0 (antibody, human IgG1, kappa)
heavy 1: not shown
heavy 2: not shown
light: B1 light
notes: as for B1
B5: GpH7-A5/GpH7-B3 variant A327_19Q/GpL16-k0 (antibody, human IgG1, kappa)
heavy 1: not shown
heavy 2: not shown
light: B1 light
notes: as for B1
B6: GpH7-A5/GpH7-B3 variant A327_04F/GpL16-k0 (antibody, human IgG1, kappa)
heavy 1: not shown
heavy 2: not shown
light: B1 light
notes: as for B1
B7: GpH7-A5/GpH7-B3 variant S324_01G/GpL16-k0 (antibody, human IgG1, kappa)
heavy 1: not shown
heavy 2: not shown
light: B1 light
notes: as for B1
B8: GpH7-A5/GpH7-B3 variant P329_13S/GpL16-k0 (antibody, human IgG1, kappa)
heavy 1: not shown
heavy 2: not shown
light: B1 light
notes: as for B1
B9: GpH7-A5/GpH7-B3 variant S324_02A/GpL16-k0 (antibody, human IgG1, kappa)
heavy 1: not shown
heavy 2: not shown
light: B1 light
notes: as for B1
B10: GpH7-A5/GpH7-B3 variant E333_01G/GpL16-k0 (antibody, human IgG1, kappa)
heavy 1: not shown
heavy 2: not shown
light: B1 light
notes: as for B1
B11: GpH7-A5/GpH7-B3 variant P329_02A/GpL16-k0 (antibody, human IgG1, kappa)
heavy 1: not shown
heavy 2: not shown
light: B1 light
notes: as for B1
B12: GpH7-A5/GpH7-B3 variant I332_03V/GpL16-k0 (antibody, human IgG1, kappa)
heavy 1: not shown
heavy 2: not shown
light: B1 light
notes: as for B1
B13: GpH7-A5/GpH7-B3 variant P329_16H/GpL16-k0 (antibody, human IgG1, kappa)
heavy 1: not shown
heavy 2: not shown
light: B1 light
notes: as for B1
B14: GpH7-A5/GpH7-B3 variant I336_20W/GpL16-k0 (antibody, human IgG1, kappa)
heavy 1: not shown
heavy 2: not shown
light: B1 light
notes: as for B1
B15: GpH7-A5/GpH7-B3 variant P329_08L/GpL16-k0 (antibody, human IgG1, kappa)
heavy 1: not shown
heavy 2: not shown
light: B1 light
notes: as for B1
B16: GpH7-A5/GpH7-B3 variant A330_18N/GpL16-k0 (antibody, human IgG1, kappa)
heavy 1: not shown
heavy 2: not shown
light: B1 light
notes: as for B1
B17: GpH7-A5/GpH7-B3 variant S324_09D/GpL16-k0 (antibody, human IgG1, kappa)
heavy 1: not shown
heavy 2: not shown
light: B1 light
notes: as for B1
B18: GpH7-A5/GpH7-B3 variant E333_18N/GpL16-k0 (antibody, human IgG1, kappa)
heavy 1: not shown
heavy 2: not shown
light: B1 light
notes: as for B1
B19: GpH7-A5/GpH7-B3 variant A330_12R/GpL16-k0 (antibody, human IgG1, kappa)
heavy 1: not shown
heavy 2: not shown
light: B1 light
notes: as for B1

Biological target: T1, FcγRIIa H (FcγRIIa type H, His at …)
Assay: SPR Biacore, captured antibody, FcgR analyte; GpH7-A5/GpH7-B3/GpL16-k0 = 100

Row | He/Con_2aH | Binder
1 | 54.9 % of HeCon Ab | B1
2 | 53.8 % of HeCon Ab | B2
3 | 38.7 % of HeCon Ab | B3
4 | 66.2 % of HeCon Ab | B4
5 | 67.3 % of HeCon Ab | B5
6 | 84.4 % of HeCon Ab | B6
7 | 98.8 % of HeCon Ab | B7
8 | 67.3 % of HeCon Ab | B8
9 | 102 % of HeCon Ab | B9
10 | 97.7 % of HeCon Ab | B10
11 | 65.7 % of HeCon Ab | B11
12 | 105 % of HeCon Ab | B12
13 | 66.1 % of HeCon Ab | B13
14 | 30.9 % of HeCon Ab | B14
15 | 45.4 % of HeCon Ab | B15
16 | 81.6 % of HeCon Ab | B16
17 | 106 % of HeCon Ab | B17
18 | 96.2 % of HeCon Ab | B18
19 | 108 % of HeCon Ab | B19

Biological target: T2, FcγRIIb, extracellular domain with …
Assay: as above

Row | He/Con_2b | Binder
20 | 41.7 % of HeCon Ab | B1
21 | 34.6 % of HeCon Ab | B2
22 | 30.7 % of HeCon Ab | B3
23 | 40.4 % of HeCon Ab | B4
24 | 54.2 % of HeCon Ab | B5
25 | 63.7 % of HeCon Ab | B6
26 | 81.1 % of HeCon Ab | B7
27 | 41 % of HeCon Ab | B8
28 | 78.3 % of HeCon Ab | B9
29 | 81.4 % of HeCon Ab | B10
30 | 40.5 % of HeCon Ab | B11
31 | 80.7 % of HeCon Ab | B12
32 | 39.1 % of HeCon Ab | B13
33 | 20.3 % of HeCon Ab | B14
34 | 29.1 % of HeCon Ab | B15
35 | 63.7 % of HeCon Ab | B16
36 | 85.8 % of HeCon Ab | B17
37 | 76.1 % of HeCon Ab | B18
38 | 84.8 % of HeCon Ab | B19

Biological target: T1, FcγRIIa H (FcγRIIa type H, His at …)
Assay: SPR Biacore; He/Con_2aH divided by He/Con_2b (reference: FcgRIIb)

Row | He_2aH/2b (IIaH/IIb) | Binder
39 | 1.32 | B1
40 | 1.56 | B2
41 | 1.26 | B3
42 | 1.64 | B4
43 | 1.24 | B5
44 | 1.32 | B6
45 | 1.22 | B7
46 | 1.64 | B8
47 | 1.31 | B9
48 | 1.2 | B10
49 | 1.62 | B11
50 | 1.3 | B12
51 | 1.69 | B13
52 | 1.52 | B14
53 | 1.56 | B15
54 | 1.28 | B16
55 | 1.23 | B17
56 | 1.26 | B18
57 | 1.27 | B19
